{"source": "paper PMC7703809", "about": "(ChemMedChem, 2020)", "molecules": {"B1": {"name": "PLK3 PBD 335-646 (protein)", "chain": "TPPNPARSLFAKVTKSLFGRKKKSKNHAQERDEVSGLVSGLMRTSVGHQDARPEAPAASGPAPVSLVETAPEDSSPRGTLASSGDGFEEGLTVATVVESALCALRNCIAFMPPAEQNPAPLAQPEPLVWVSKWVDYSNKFGFGYQLSSRRVAVLFNDGTHMALSANRKTVHYNPTSTKHFSFSVGAVPRALQPQLGILRYFASYMEQHLMKGGDLPSVEEVEVPAPPLLLQWVKTDQALLMLFSDGTVQVNFYGDHTKLILSGWEPLLVTFVARNRSACTYLASHLRQLGCSPDLRQRLRYALRLLRDRSPA"}}, "key": {"[1]": {"target": "PLK1 PBD (367–603) (Homo sapiens, UniProt P53350)", "sequence (P53350 367-603)": "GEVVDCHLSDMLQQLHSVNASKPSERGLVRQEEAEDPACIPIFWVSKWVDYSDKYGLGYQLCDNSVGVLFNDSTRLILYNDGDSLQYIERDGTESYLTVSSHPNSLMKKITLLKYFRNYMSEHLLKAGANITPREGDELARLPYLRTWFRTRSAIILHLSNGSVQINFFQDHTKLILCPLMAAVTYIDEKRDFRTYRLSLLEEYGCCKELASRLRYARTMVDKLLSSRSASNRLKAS", "experiment": "Fluorescence polarization competitive binding assay, PLK1 PBD", "conditions": "for Selectivity Index: PLK1 vs PLK3 PBD, accounting for 5-fold difference in tracer affinity"}, "[2]": {"target": "T1, PLK3 PBD (335–646) (Homo sapiens, UniProt Q9H4B4)", "T1 sequence (Q9H4B4 335-646)": "B1 chain", "experiment": "Fluorescence polarization competitive binding assay, PLK3 PBD"}, "[3]": {"target": "T2, PLK3 fluorescein tracer phosphopeptide (also: fluorescein label, place not given here)", "T2 chain": "GPLATS[pT]PKNG", "experiment": "fluorescence polarization"}, "[4]": {"target": "T3, PBIP phosphopeptide 5 (Homo sapiens)", "T3 chain": "Ac-LHS[pT]AI", "experiment": "fluorescence polarization competition"}, "[5]": {"target": "T4, PLK3 consensus peptide 7", "T4 chain": "GPLATS[pT]PKNG", "experiment": "fluorescence polarization competition"}, "[6]": {"target": "T5, chimeric peptide 8", "T5 chain": "GPLATS[pT]PNGL", "experiment": "fluorescence polarization competition"}, "[7]": {"target": "T6, chimeric peptide 3", "T6 chain": "Ac-PLHS[pT]PNGL", "experiment": "fluorescence polarization competition"}, "[8]": {"target": "T7, FLIP 19", "T7 chain": "{4‑butylbenzoyl}-S[pT]PNGL", "experiment": "fluorescence polarization competition"}, "[9]": {"target": "T8, Cdc25C phosphopeptide 1 (Homo sapiens)", "T8 chain": "LLCS[pT]PNGL", "experiment": "fluorescence polarization competition"}, "[10]": {"target": "T9, FLIP 21", "T9 chain": "{Benzoyl(4-octyl)}-S[pT]PNGL", "experiment": "fluorescence polarization competition"}, "[11]": {"target": "T10, chimeric peptide 9", "T10 chain": "Ac-PLHS[pT]PKNG", "experiment": "fluorescence polarization competition"}, "[12]": {"target": "T11, PBIP phosphopeptide 6 (Homo sapiens)", "T11 chain": "Ac-PLHS[pT]A", "experiment": "fluorescence polarization competition"}, "[13]": {"target": "T12, PBIP phosphopeptide 4 (Homo sapiens)", "T12 chain": "Ac-PLHS[pT]AI", "experiment": "fluorescence polarization competition"}}, "note": "Non-standard residues stand in square brackets, D forms with d. Residues, ends and D or L forms follow the SMILES beside them. No end group written: not given here. *: point of attachment. Benzoyl(4-octyl) = CCCCCCCCc1ccc(C(=O)*)cc1; pT = C[C@@H](OP(=O)(O)O)[C@H](N)C(=O)O", "data": [{"molecule": "CC(=O)N1CCC[C@H]1C(=O)N[C@@H](CC(C)C)C(=O)N[C@@H](Cc1c[nH]cn1)C(=O)N[C@@H](CO)C(=O)N[C@H](C(=O)N1CCC[C@H]1C(=O)N[C@@H](CCCCN)C(=O)N[C@@H](CC(N)=O)C(=O)NCC(=O)O)[C@@H](C)OP(=O)(O)O", "note": "[Compound 9, Ac-PLHS[pT]PKNG] (Ac-PLHS[pT]PKNG-OH)", "values": [{"measurement": "Selectivity Index", "setting": "[1]", "result": "20,906"}]}, {"molecule": "CC[C@H](C)[C@H](NC(=O)[C@H](C)NC(=O)[C@@H](NC(=O)[C@H](CO)NC(=O)[C@H](Cc1c[nH]cn1)NC(=O)[C@H](CC(C)C)NC(=O)[C@@H]1CCCN1C(C)=O)[C@@H](C)OP(=O)(O)O)C(=O)O", "note": "[Compound 4, Ac-PLHS[pT]AI] (Ac-PLHS[pT]AI-OH)", "values": [{"measurement": "Selectivity Index", "setting": "[1]", "result": "21,133"}]}, {"molecule": "LLCSTPNGL [Compound 2]", "values": [{"measurement": "PLK1 PBD FP IC50", "setting": "[1]; competition with fluorescein tracer MAGPMQS[pT]PLNGAKK, maximum 600 μM tested", "result": "almost complete loss of binding"}]}, {"molecule": "CC(C)C[C@H](NC(=O)CNC(=O)[C@H](CC(N)=O)NC(=O)[C@@H]1CCCN1C(=O)[C@@H](NC(=O)[C@H](CO)NC(=O)[C@H](CS)NC(=O)[C@H](CC(C)C)NC(=O)[C@@H](N)CC(C)C)[C@@H](C)OP(=O)(O)O)C(=O)O", "note": "[Compound 1, LLCS[pT]PNGL] (H-LLCS[pT]PNGL-OH)", "values": [{"measurement": "IC50", "setting": "[2]", "result": "> 600", "unit": "µM"}]}, {"molecule": "CC[C@H](C)[C@H](NC(=O)[C@H](C)NC(=O)[C@@H](NC(=O)[C@H](CO)NC(=O)[C@H](Cc1c[nH]cn1)NC(=O)[C@H](CC(C)C)NC(C)=O)[C@@H](C)OP(=O)(O)O)C(=O)O", "note": "[Compound 5, Ac-LHS[pT]AI] (Ac-LHS[pT]AI-OH)", "values": [{"measurement": "PLK3 PBD FP IC50", "setting": "[2]; competition with fluorescein tracer GPLATS[pT]PKNG, maximum 600 μM tested", "result": "lost all detectable affinity"}]}, {"molecule": "B1", "values": [{"measurement": "Kd", "setting": "[3]", "result": 0.0272, "unit": "µM"}, {"measurement": "IC50", "setting": "[4]", "result": "> 600", "unit": "µM"}, {"measurement": "IC50", "setting": "[5]", "result": 2.2, "unit": "µM"}, {"measurement": "IC50", "setting": "[6]", "result": 6.3, "unit": "µM"}, {"measurement": "IC50", "setting": "[7]", "result": 164, "unit": "µM"}, {"measurement": "IC50", "setting": "[8]", "result": "> 600", "unit": "µM"}, {"measurement": "IC50", "setting": "[9]", "result": "> 600", "unit": "µM"}, {"measurement": "IC50", "setting": "[10]", "result": 149, "unit": "µM"}, {"measurement": "IC50", "setting": "[11]", "result": 134, "unit": "µM"}, {"measurement": "IC50", "setting": "[12]", "result": "> 600", "unit": "µM"}, {"measurement": "IC50", "setting": "[13]", "result": 270, "unit": "µM"}]}]}
